Data set [1] deals with the molecule itself. Kind of data set: analytical ultracentrifugation, equilibrium sedimentation, homodimer, 5 mM C14-betaine micelles.
Description: (§1) Equilibrium sedimentation was used primarily to determine the association state of the peptides, but also to provide a rough estimate of the heterodimeric association constants. […] Peptides were co-dissolved in CF₃CH₂OH (Sigma-Aldrich, St. Louis, Mo.) and C14-betaine (3-(N,N-dimethylmyristyl-ammonio)propanesulfonate; Sigma-Aldrich, St. Louis, Mo.). […] The final concentration of C-14 betaine is 5 mM in the samples. Samples were prepared in a total peptide concentration of 50 μM (in case of heterodimer formation, a 1:1 mixture was prepared) and incubated overnight. Data at three measurement speeds (40, 45, and 50 KRPM for αIIb peptides and 30, 35, and 40 KRPM for the αv peptides) were analyzed by global curve-fitting of radial concentration gradients (measured using optical absorption) (FIG. 8a-8f) to the sedimentation equilibrium equation for monomer-dimer equilibria among the peptides included in the solution. […] Aqueous solution molar extinction coefficients at 280 nm were calculated using the program Sednterp. […] These coefficients were multiplied by the molar detergent concentration to provide mole ratio concentration units.
(§2) Ultracentrifugation data (FIG. 8) were first collected for the individual peptides.
Data set [2] deals with T1, fluorescein-5-isothiourea-tagged αIIb-TM (fluorescein-5-isothiourea (FITC) attached via an ε-aminohexanoic acid linker to the N-terminus).
T1 construct: also called FITC-αIIb-TM; αIIb-TM-FITC
T1 peptide: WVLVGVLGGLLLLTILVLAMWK
Kind of data set: analytical ultracentrifugation, equilibrium sedimentation, heterodimer, 1:1 mixture in 5 mM C14-betaine micelles.
Description: as §1, §2

Data set [3] deals with integrin αVβ3 on human platelets (human, UniProt P06756 31-1048; P05106 27-788). Kind of data set: cell-based or functional assay.
The target of a further data set is T2, αV-TM-coum (coumarin label (site not stated)).
T2 peptide: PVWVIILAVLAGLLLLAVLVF
Kind of data set: analytical ultracentrifugation, equilibrium sedimentation, heterodimer, 1:1 mixture in 5 mM C14-betaine micelles.

Square brackets hold non-standard residues; d marks the D form. Ends that are not written are not given here. AEEA = NCCOCCOCC(=O)O

integrin αVβ3 on human platelets, sequence (P06756 31-1048, chain 1 of 2): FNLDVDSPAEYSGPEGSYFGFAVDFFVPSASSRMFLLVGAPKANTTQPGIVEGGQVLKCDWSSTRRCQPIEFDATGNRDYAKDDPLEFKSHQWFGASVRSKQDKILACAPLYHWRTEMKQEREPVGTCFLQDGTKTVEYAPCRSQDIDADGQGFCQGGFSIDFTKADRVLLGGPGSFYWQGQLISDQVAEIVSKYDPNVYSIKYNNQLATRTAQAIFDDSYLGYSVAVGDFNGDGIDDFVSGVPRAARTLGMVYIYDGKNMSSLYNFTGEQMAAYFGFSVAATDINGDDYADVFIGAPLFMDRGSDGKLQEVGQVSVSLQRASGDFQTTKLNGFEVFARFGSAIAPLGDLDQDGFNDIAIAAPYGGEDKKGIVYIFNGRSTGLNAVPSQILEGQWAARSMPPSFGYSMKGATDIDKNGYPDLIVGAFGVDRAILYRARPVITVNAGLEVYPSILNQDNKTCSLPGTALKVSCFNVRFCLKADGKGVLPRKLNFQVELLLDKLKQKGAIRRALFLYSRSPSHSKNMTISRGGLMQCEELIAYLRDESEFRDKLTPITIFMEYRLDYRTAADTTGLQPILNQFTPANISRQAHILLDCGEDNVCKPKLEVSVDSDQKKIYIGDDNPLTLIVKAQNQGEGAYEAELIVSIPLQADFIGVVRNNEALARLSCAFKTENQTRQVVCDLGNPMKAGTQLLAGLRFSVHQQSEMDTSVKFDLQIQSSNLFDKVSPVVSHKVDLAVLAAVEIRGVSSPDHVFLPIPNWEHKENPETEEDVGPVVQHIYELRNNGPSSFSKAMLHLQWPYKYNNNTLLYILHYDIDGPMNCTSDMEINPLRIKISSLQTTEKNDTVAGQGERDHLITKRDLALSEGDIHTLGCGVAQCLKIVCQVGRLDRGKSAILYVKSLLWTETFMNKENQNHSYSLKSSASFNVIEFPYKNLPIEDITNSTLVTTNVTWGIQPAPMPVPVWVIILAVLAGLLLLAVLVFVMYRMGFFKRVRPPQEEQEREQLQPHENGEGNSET
integrin αVβ3 on human platelets, sequence (P05106 27-788, chain 2 of 2): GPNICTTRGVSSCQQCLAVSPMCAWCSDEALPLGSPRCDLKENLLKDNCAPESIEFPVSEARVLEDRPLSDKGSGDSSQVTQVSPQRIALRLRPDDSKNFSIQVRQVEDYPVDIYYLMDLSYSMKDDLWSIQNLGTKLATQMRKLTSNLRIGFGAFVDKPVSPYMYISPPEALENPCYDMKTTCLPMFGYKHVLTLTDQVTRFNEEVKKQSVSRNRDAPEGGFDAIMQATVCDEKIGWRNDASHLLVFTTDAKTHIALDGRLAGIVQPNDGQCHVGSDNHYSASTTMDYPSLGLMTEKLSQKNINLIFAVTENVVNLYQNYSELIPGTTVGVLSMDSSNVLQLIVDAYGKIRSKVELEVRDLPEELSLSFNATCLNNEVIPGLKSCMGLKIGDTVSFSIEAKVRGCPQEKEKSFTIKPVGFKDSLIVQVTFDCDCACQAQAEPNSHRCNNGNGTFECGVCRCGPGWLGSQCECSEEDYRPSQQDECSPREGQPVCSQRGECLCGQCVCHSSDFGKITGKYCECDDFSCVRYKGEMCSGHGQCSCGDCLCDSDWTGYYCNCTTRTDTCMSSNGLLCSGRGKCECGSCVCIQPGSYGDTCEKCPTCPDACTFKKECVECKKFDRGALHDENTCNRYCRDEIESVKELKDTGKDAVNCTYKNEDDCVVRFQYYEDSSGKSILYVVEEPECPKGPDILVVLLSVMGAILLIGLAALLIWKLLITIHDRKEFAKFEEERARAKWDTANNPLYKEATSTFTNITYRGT
Description for αV-TM-coum: as §1, §2

Turning to KKAYVMLLPFFIGLLLGLIFGGAFWGPARHLKK (designed binder, also: FITC-labeled, site not given here) [Anti-αIIb (FITC-labeled)], the “Dimerization pKdiss” value in data set [1] is 2.3 pKdiss (mole ratio units).
KKAYVMLLPFFIGLLLGLIFGGAFWGPARHLKK (designed binder, also called anti-am) [anti-αIIb polypeptide]: in data set [2], the “Dimerization pKdiss” value is 2.6 pKdiss (mole ratio units).
Turning to AYVFILLSFILGTLLGFLVMFWA (designed binder, also: coumarin-labeled, site not given here) [Anti-αV(coumarin-labeled)], the “Dimerization pKdiss” value in data set [1] was 1.4 pKdiss (mole ratio units).
For the molecule [AEEA]AYVFILLSFILGTLLGFLVMFWA (designed binder) [anti-αV polypeptide], the “fold decrease in potency in inducing platelet adhesion to immobilized osteopontin” value in data set [3] was around 10 fold. In addition, the “Dimerization pKdiss” value with αV-TM-coum was > 2 pKdiss (mole ratio units).
PVWVIILAVLAGLLLLAVLVF [αV-TM]: the “Dimerization pKdiss” value in data set [1] was 0.7 pKdiss (mole ratio units).
Turning to WVLVGVLGGLLLLTILVLAMWK [αIIb-TM polypeptide], the “Dimerization pKdiss” value in data set [1] was 1.8 pKdiss (mole ratio units).

The values above are taken from patent publication US20100120695A1 (University of Pennsylvania, published 2010).
